# Test results published in US20240002844.
# Target: T1, recombinant SHN3 (rSHN3, 50-930 aa) (UniProt A2A884)
# T1 sequence: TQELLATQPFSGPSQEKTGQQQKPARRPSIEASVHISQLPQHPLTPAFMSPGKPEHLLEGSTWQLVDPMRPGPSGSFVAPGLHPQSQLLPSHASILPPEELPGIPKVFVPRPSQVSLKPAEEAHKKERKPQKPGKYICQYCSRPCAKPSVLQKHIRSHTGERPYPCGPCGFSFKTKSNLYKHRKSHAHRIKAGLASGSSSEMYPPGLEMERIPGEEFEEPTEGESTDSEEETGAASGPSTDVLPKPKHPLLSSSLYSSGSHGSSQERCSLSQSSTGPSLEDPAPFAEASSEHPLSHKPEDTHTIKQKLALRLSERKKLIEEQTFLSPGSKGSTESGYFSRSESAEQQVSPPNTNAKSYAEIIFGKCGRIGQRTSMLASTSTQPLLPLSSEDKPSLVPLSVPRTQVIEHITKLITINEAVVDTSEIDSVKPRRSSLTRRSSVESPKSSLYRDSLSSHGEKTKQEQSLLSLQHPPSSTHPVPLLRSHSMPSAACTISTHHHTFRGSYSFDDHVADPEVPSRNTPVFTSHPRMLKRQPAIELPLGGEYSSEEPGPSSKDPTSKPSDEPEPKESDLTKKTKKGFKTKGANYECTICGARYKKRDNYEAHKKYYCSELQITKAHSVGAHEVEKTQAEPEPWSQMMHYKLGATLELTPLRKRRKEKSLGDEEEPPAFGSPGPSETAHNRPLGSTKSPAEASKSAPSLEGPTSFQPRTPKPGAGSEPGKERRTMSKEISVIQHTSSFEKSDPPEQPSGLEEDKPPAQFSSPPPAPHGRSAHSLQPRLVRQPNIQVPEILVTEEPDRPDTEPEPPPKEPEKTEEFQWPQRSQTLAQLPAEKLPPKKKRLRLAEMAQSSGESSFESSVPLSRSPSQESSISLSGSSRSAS
# Chain of recombinant ERK2 (rERK2) (P28482 2-360): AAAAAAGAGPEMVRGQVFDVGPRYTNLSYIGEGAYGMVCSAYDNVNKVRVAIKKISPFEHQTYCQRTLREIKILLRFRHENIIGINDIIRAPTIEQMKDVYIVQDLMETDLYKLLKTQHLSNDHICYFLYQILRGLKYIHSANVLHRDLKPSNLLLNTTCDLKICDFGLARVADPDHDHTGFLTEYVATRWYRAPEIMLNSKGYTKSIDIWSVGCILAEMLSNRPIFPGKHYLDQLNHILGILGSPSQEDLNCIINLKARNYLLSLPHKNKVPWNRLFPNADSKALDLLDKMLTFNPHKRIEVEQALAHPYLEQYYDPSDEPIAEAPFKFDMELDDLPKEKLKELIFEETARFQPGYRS
substance,measurement,value
recombinant ERK2 (rERK2),in vitro kinase assay: rERK2-induced phosphorylation of rSHN3 (FIG. 9C),recombinant SHN3 (rSHN3) was phosphorylated by recombinant ERK2 (rERK2)
same,in vitro kinase assay: rERK2-induced phosphorylation of the ERK substrate ELK1 (FIG. 9C),rSHN3 inhibited rERK2-induced phosphorylation of the ERK substrate ELK1
same,phospho-spectrometry analysis of rERK and rSHN3 (FIG. 9D),"rERK phosphorylates rSHN3 at two serines (810 and 811 aa), one threonine (851 aa), and two serines (911 and 913 aa)"
